The results in this text go back to patent US6890900B2, “Methods for treating or preventing diseases of the oral cavity” (Campina B.V., priority 2001, dated 2005).

The test system of this assay is oral culture (oral swab from a healthy adult, oral flora). Briefly: LF/GMP assay, viable plate count (pour plate) of broth culture. The assay is classed as cell-based, Streptococcus salivaris. The settings on record: 35° C.; for Colony Counts: viable plate count. Also noted: key to MIBC: NCF: No Effective Concentration Found. How it is done:
Bacterial strains used in this study were Pseudomonas aeruginosa ATCC #27853, Streptococcus mutans ATCC #33535, Streptococcus pyogenes ATCC #19615, and Actinobacillus haemophilus ATCC #43717 and an oral swab from a healthy adult. Bacteria were grown on blood/BHT media (Brain Heart Infusion Agar with protease peptone, sodium chloride, glucose, di-sodium phosphate, and agar, Oxoid, Hampshire England, Sheep's Blood) in the presence of 5% CO2 at 35° C. […] The 0.5 McFarland value is approximately equivalent to 1.0×10^8 organisms. One ml of the appropriate bacterial dilution was taken using a sterile pipette and introduced into 8 ml of sterilized BHI broth. […] By pipette, 9 ml of broth was placed into medium test tubes as means of a control and 8 ml test tubes were prepared for the concentration tests). […] This solution was filtered through a 0.45 μm filter. […] Example for calculating 2,500 ppm dilution (1,000 ppm=0.1%): [formula] [formula] [formula] To study the kinetics of LF/GMP binding, each strain of bacteria was taken separately with a sterile pipette and placed into an 8 ml BHI broth test tube, vortexed, and incubated in the presence of 1 ml of LF or GMP for 18-24 hours at 35° C. with 5% CO2. In the combination procedure, 0.5 ml of both LF and […] were taken as 1 ml inoculations. This technique was used to determine the density of living (viable) cells in inoculated broth cultures. It involves plating a bacterial sample and counting the resulting colonies after incubation. A serial dilution of the original broth was taken prior to plating. The serial dilution is necessary to reduce the density of organisms in order to create countable plates. Only plates containing between 25 and 250 colonies are considered countable. Cell densities are traditionally recorded as CFU (colony forming unit)/ml. […] Formula: [formula] The assays required the use of a pour plate technique. The pour plate technique adds a step to the conventional serial dilution. The 1 ml of dilution is added to a warm emulsion of dilute nutrient (BHI) agar to produce an agar overlay in the petri plates. After incubation, the bacterial growth covers the entire plate but individual cellular movement has been restricted by the soft agar overlay. Each colony formed is assumed to have originated from a single CFU. The plates were gently mixed, inverted, and incubated for 18-24 hour at 35° C. There is a mixture of microorganisms obtained in “normal oral flora.” Testing a swab taken from a healthy mouth cavity aided in the identification of the most common mouth flora. Experiments were conducted with the mouth culture to determine the antimicrobial effects of LF and GMP. Oral cultures were grown on BHI agar with added sheep's blood for 24 hours at 35° C. 5% CO2. […] These plates were incubated for another 24 hours. Here, isolated colonies were taken and were streaked on a BHI/Blood plate for growth of a pure culture. Streaking a plate produces isolated growth of microbial species in a mixed culture sample. Once isolated, pure cultures can be tested for species identification. The isolated colonies were Gram-stained to distinguish between Gram-positive and Gram-negative cells. The Gram stain is a differential stain in which a decolorization step occurs between the application of two basic stains. The next step was a catalase test to identify the organisms that produce the enzyme catalase. It was used to differentiate members of the catalase-positive Micrococcaceae and Staphylococci from the catalase-negative Streptococcaceae. Hydrogen peroxide was added to the bacteria and observed for a reaction (evidence of bubbles being formed). In the oral culture, three isolated colonies were tested for identification from a swabbed mouth cavity. […] This negative-catalase reaction was a confirmation of a streptococcus species. The API 20 Strep test was done on all three pure cultures to identify each species. The numbers were the results of the API 20 test. […]

B1: LF: Bovine lactoferrin, iron-binding glycoprotein purified from milk, provided by DMV International (protein, UniProt P24627 20-708, looked up)
Lactotransferrin: APRKNVRWCTISQPEWFKCRRWQWRMKKLGAPSITCVRRAFALECIRAIAEKKADAVTLDGGMVFEAGRDPYKLRPVAAEIYGTKESPQTHYYAVAVVKKGSNFQLDQLQGRKSCHTGLGRSAGWIIPMGILRPYLSWTESLEPLQGAVAKFFSASCVPCIDRQAYPNLCQLCKGEGENQCACSSREPYFGYSGAFKCLQDGAGDVAFVKETTVFENLPEKADRDQYELLCLNNSRAPVDAFKECHLAQVPSHAVVARSVDGKEDLIWKLLSKAQEKFGKNKSRSFQLFGSPPGQRDLLFKDSALGFLRIPSKVDSALYLGSRYLTTLKNLRETAEEVKARYTRVVWCAVGPEEQKKCQQWSQQSGQNVTCATASTTDDCIVLVLKGEADALNLDGGYIYTAGKCGLVPVLAENRKSSKHSSLDCVLRPTEGYLAVAVVKKANEGLTWNSLKDKKSCHTAVDRTAGWNIPMGLIVNQTGSCAFDEFFSQSCAPGADPKSRLCALCAGDDQGLDKCVPNSKEKYYGYTGAFRCLAEDVGDVAFVKNDTVWENTNGESTADWAKNLNREDFRLLCLDGTRKPVTEAQSCHLAVAPNHAVVSRSDRAAHVKQVLLHQQALFGKNGKNCPDKFCLFKSETKNLLFNDNTECLAKLGGRPTYEEYLGTEYVTAIANLKKCSTSPLLEACAFLTR
Regarding B1, the “Colony Counts” value is recorded as 4.8 × 10^8 (50 ppm, 24 h); 4.2 × 10^8 (100 ppm, 24 h); 4.3 × 10^8 (250 ppm, 24 h); 4.0 × 10^8 (500 ppm, 24 h); 3.9 × 10^8 (1,000 ppm, 24 h); 3.4 × 10^8 (3,000 ppm, 24 h). Further, the “Total Log Reduction” value reads like this: (Lactoferrin/GMP 250/0 ppm (LF alone)) 0 log; (Lactoferrin/GMP 3,000/0 ppm (LF alone)) 0 log. Also, where the note is “at the MIBC, vs control”, the “# Log Reductions” value was found to be 0 log. In addition, the “effect on growth (in words)” value (single agent, any tested concentration) is reported as “not effected”. Moreover, the MIBC entry (single agent, 24 h, 5% CO2) is recorded as “NCF”.
